Assay results published in paper PMC6751169.

Columns and labels:
[1] = biological target: T1, MenDRA2 (MenD-RIAD-RIAD with two sequential RIAD peptide tags) (E. coli); assay: SEC; 1.5 mg of enzyme fused with RIAD mixed with two-fold molar excess of enzyme fused with RIDD in Tris buffer pH 7.8, 1 mM EDTA, 0.02% Tween-20, no incubation; Superdex 200 10/300 GL, 0.4 mL/min, Tris pH 7.8, 50 mM NaCl; masses from a calibration curve
T1 sequence (P17109 whole entry, looked up): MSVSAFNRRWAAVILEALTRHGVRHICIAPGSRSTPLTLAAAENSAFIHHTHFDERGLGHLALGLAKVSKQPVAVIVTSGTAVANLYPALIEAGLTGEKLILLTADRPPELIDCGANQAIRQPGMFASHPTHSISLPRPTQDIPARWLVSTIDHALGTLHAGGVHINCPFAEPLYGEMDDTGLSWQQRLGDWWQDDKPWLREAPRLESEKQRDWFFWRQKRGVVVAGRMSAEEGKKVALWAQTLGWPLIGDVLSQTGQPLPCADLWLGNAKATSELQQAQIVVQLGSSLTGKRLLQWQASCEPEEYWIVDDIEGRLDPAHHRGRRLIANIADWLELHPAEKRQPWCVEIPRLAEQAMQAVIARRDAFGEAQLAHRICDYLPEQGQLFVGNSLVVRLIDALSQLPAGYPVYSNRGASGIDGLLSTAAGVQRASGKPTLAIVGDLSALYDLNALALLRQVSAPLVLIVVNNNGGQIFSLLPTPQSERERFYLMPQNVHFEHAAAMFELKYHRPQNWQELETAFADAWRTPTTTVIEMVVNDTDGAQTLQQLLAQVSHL

[2] = biological target: T2, MenDRA (MenD-RIAD with one RIAD peptide tag) (E. coli); assay: as above
T2 sequence (P17109 whole entry, looked up): T1 sequence (P17109 whole entry, looked up)

stoichiometry N (MenH per 4 MenD (per particle)) [1]: 16
stoichiometry N (MenH per 4 MenD (per particle)) [2]: 8
B1: MenHRD (MenH-RIDD with one RIDD peptide tag), P10644 1-44 (enzyme)
chain: MILHAQAKHGKPGLPWLVFLHGFSGDCHEWQEVGEAFADYSRLYVDLPGHGGSAAISVDGFDDVTDLLRKTLVSYNILDFWLVGYSLGGRVAMMAACQGLAGLCGVIVEGGHPGLQNAEQRAERQRSDRQWVQRFLTEPLTAVFADWYQQPVFASLNDDQRRELVALRSNNNGATLAAMLEATSLAVQPDLRANLSARTFAFYYLCGERDSKFRALAAELAADCHVIPRAGHNAHRENPAGVIASLAQILRFGGGGSGGGGSGGGGSSLRECELYVQKHNIQALLKDSIVQLCTARPERPMAFLREYFEKLEKEEAK
modifications: not checked
